Experiment [1] addresses T1, 4H2760-bA.
T1 chain: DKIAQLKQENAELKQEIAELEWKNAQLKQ
The experiment can be described thus: two-hybrid library CCNG1.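 Note: natural log of median RNA to DNA barcode read ratio; higher means stronger binding.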

Experiment [2] concerns the target T2, 4H2760-bN.
T2 chain: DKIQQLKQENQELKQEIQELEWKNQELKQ
The experiment can be described thus: two-hybrid library CCNG1.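 Note: natural log of median RNA to DNA barcode read ratio; higher means stronger binding.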

The target in experiment [3] is T3, 4H2859-bA.
T3 chain: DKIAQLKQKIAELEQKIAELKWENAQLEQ
The experiment can be described thus: two-hybrid library CCNG1.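 Note: natural log of median RNA to DNA barcode read ratio; higher means stronger binding.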

Experiment [4] has as its target T4, 4H2931-bA.
T4 chain: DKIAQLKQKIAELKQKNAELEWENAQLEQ
The experiment can be described thus: two-hybrid library CCNG1.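 Note: natural log of median RNA to DNA barcode read ratio; higher means stronger binding.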

The target of experiment [5] is T5, 4H3041-bA.
T5 chain: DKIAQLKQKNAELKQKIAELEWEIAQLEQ
Kind of experiment: two-hybrid library CCNG1.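 Note: natural log of median RNA to DNA barcode read ratio; higher means stronger binding.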

Experiment [6] has as its target T6, 4H3297-bA.
T6 chain: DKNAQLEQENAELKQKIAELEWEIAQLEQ
The experiment can be described thus: two-hybrid library CCNG1.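 Note: natural log of median RNA to DNA barcode read ratio; higher means stronger binding.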

The target of experiment [7] is T7, 4H3364-bA.
T7 chain: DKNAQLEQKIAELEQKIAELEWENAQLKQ
The experiment can be described thus: two-hybrid library CCNG1.

In experiment [8] the target is T8, 4H3381-bA.
T8 chain: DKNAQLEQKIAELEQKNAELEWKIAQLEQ
The experiment can be described thus: two-hybrid library CCNG1.

Experiment [9] addresses T9, 4H349-bA.
T9 chain: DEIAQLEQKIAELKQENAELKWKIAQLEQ
The experiment can be described thus: two-hybrid library CCNG1.

Experiment [10] concerns the target T10, 4H56-bA.
T10 chain: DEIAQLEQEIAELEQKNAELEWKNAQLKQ
Kind of experiment: two-hybrid library CCNG1.

For experiment [11], the target named is T11, 4H626-bA.
T11 chain: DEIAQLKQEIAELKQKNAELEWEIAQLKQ
The experiment can be described thus: two-hybrid library CCNG1.

In experiment [12] the target is T12, 4H730-bA.
T12 chain: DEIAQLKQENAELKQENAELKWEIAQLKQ
Kind of experiment: two-hybrid library CCNG1.

Experiment [13] concerns the target T13, 4H796-bA.
T13 chain: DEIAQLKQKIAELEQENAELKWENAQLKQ
The experiment can be described thus: two-hybrid library CCNG1.

The target of experiment [14] is T14, 4H932-bA.
T14 chain: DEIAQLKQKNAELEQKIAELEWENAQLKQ
The experiment can be described thus: two-hybrid library CCNG1.

Experiment [15] deals with T15, 4H949-bA.
T15 chain: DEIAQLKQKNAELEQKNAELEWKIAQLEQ
The experiment can be described thus: two-hybrid library CCNG1.

In experiment [16] the target is T16, 4H967-bN.
T16 chain: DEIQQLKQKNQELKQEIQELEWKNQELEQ
Kind of experiment: two-hybrid library CCNG1.

For experiment [17], the target named is T17, P7SHb.
T17 chain: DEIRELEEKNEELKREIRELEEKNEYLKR
Kind of experiment: two-hybrid library CCNG1.

Experiment [18] concerns the target T18, P2-AA-1HAA-D.
T18 chain: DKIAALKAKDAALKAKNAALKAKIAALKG
The experiment can be described thus: two-hybrid library CCmax. To be noted: mean of both orientations.

Experiment [19] addresses T19, P2-AA-1HAA-E.
T19 chain: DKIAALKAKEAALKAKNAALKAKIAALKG
The experiment can be described thus: two-hybrid library CCmax. Particulars: mean of both orientations.

For experiment [20], the target named is T20, P2-AA-1HAA-I.
T20 chain: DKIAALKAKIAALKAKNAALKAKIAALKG
Kind of experiment: two-hybrid library CCmax. To be noted: mean of both orientations.

Experiment [21] addresses T21, P2-AA-1HAA-R.
T21 chain: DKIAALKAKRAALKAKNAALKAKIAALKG
The experiment can be described thus: two-hybrid library CCmax. Particulars: mean of both orientations.

For experiment [22], the target named is T22, P2-AA-1HAA-T.
T22 chain: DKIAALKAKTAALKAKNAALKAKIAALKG
The experiment can be described thus: two-hybrid library CCmax. To be noted: mean of both orientations.

The target of experiment [23] is T23, P2-AA-1HAA-V.
T23 chain: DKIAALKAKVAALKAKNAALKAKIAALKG
The experiment can be described thus: two-hybrid library CCmax. Particulars: mean of both orientations.

Experiment [24] concerns the target T24, P2-AA.
T24 chain: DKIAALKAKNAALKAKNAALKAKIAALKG
Kind of experiment: two-hybrid library CCmax. Particulars: mean of both orientations.

Experiment [25] has as its target T25, 4H3298-bN.
T25 chain: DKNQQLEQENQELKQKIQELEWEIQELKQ
The experiment can be described thus: two-hybrid library CCNG1.

The target in experiment [26] is T26, 4H3462-bN.
T26 chain: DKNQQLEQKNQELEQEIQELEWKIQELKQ
The experiment can be described thus: two-hybrid library CCNG1.

Experiment [27] deals with T27, 4H3497-bN.
T27 chain: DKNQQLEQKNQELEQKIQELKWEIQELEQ
The experiment can be described thus: two-hybrid library CCNG1.

For experiment [28], the target named is T28, 4H3613-bN.
T28 chain: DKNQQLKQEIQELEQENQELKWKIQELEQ
Kind of experiment: two-hybrid library CCNG1.

For experiment [29], the target named is T29, 4H3628-bN.
T29 chain: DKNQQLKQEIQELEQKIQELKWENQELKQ
Kind of experiment: two-hybrid library CCNG1.

For experiment [30], the target named is T30, 4H3926-bN.
T30 chain: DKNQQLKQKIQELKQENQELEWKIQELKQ
The experiment can be described thus: two-hybrid library CCNG1.

Experiment [31] has as its target T31, 4H591-bN.
T31 chain: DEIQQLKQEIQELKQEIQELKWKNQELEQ
The experiment can be described thus: two-hybrid library CCNG1.

Experiment [32] deals with T32, 4H626-bN.
T32 chain: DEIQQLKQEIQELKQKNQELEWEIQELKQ
Kind of experiment: two-hybrid library CCNG1.

Experiment [33] has as its target T33, 4H906-bN.
T33 chain: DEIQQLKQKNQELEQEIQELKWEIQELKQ
Kind of experiment: two-hybrid library CCNG1.

DKIAQLKQENAELKQEIAELEWKNAQLKQ [4H2760-bA]: the interaction score is 0.895 in experiment [1]; -1.33 in [2]; 0.0768 in experiment [3]; -0.0923 in experiment [4]; 0.518 in experiment [5]; 1.18 in experiment [6]. Moreover, the interaction score in experiment [7] is 0.448; in [8] it was -0.726; in [9], -0.95; in experiment [10], -1.54; in experiment [11], -2.94; in experiment [12], -0.287. In addition, the interaction score was -0.576 in experiment [13], 0.295 in [14], -1.14 in [15] and -2.38 in experiment [16].
Regarding DEIAQLEQEIAELEQKNAELEWKNAQLKQ [4H56-bA], the interaction score is -0.593 in experiment [10]; -1.15 in experiment [12]; -0.775 in experiment [13]; -0.898 in experiment [14]; -0.628 in experiment [15]; 0.584 in [17].
For the molecule DEIAALEAEYAALEAENAALEAEIAALEG [P1-AA-1HAA-Y], the interaction score was determined as 0.371 in experiment [18]; 0.866 in experiment [19]; 2.07 in experiment [20]; 1.52 in [21]; 1.95 in experiment [22]; 1.99 in [23]. In experiment [24], this molecule yielded an interaction score of 2.07.
Turning to DKNQQLEQENQELKQKIQELEWEIQELKQ [4H3298-bN], the interaction score in [25] was -2.82; in [26] it was -0.0887; in experiment [27], -1.06; in experiment [28], -1.42; in experiment [29], -0.916; in experiment [30], -1.32. Also, the interaction score is -0.882 in [31], -1.27 in experiment [32] and -0.217 in [33].

The values above are taken from paper PMC10397247.
